This note sets out measurements from IntAct's records for PubMed 21804557.

B1: Indoleamine 2,3-dioxygenase 1 (Mus musculus), P28776 (parent)
chain: MALSKISPTEGSRRILEDHHIDEDVGFALPHPLVELPDAYSPWVLVARNLPVLIENGQLREEVEKLPTLSTDGLRGHRLQRLAHLALGYITMAYVWNRGDDDVRKVLPRNIAVPYCELSEKLGLPPILSYADCVLANWKKKDPNGPMTYENMDILFSFPGGDCDKGFFLVSLLVEIAASPAIKAIPTVSSAVERQDLKALEKALHDIATSLEKAKEIFKRMRDFVDPDTFFHVLRIYLSGWKCSSKLPEGLLYEGVWDTPKMFSGGSAGQSSIFQSLDVLLGIKHEAGKESPAEFLQEMREYMPPAHRNFLFFLESAPPVREFVISRHNEDLTKAYNECVNGLVSVRKFHLAIVDTYIMKPSKKKPTDGDKSEEPSNVESRGTGGTNPMTFLRSVKDTTEKALLSWP

The variants in this assay derive from B1. The conditions noted are these: with ptn6_mouse Ptpn6, P29351.
Sequence of ptn6_mouse Ptpn6, P29351 (P29351 whole entry): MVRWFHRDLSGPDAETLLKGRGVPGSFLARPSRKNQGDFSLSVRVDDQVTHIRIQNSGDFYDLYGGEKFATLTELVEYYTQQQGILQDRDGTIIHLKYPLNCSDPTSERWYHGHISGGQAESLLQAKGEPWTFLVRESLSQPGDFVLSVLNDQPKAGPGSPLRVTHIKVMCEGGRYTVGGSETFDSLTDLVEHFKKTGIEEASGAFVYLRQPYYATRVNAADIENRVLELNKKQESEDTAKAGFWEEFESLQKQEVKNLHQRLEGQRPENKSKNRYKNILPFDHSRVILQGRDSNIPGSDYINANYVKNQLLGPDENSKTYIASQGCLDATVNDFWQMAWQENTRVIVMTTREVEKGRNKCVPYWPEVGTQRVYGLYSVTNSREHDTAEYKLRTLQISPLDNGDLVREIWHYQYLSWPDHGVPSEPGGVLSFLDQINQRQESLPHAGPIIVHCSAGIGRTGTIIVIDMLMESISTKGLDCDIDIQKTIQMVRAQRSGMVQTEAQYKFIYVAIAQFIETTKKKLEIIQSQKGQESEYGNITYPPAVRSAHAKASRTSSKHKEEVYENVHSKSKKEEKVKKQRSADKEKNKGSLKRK
For Y115F;Y253F, the “effect of a mutation on the interaction” value was “decreasing interaction”.
